The target in experiment [1] is T1, human integrin α5β1 on cells (endogenous, HUVEC; tumor or endothelial-expressed) (human, UniProt P08648 42-1049; P05556 21-798).
T1 construct: whole, on cells; also called cell surface integrin α5; endogenous α5β1
As to the kind of experiment: FACS on HUVEC (endogenous human α5β1), GeoMean against mAb concentration, fitted; experiment 030207.

The target of experiment [2] is T1, human integrin α5β1 on cells …. As to the kind of experiment: cell-based or functional assay.
Experiment [3] shares this target. As to the kind of experiment: cell-based or functional assay. The source holds these as a separate data set.
For experiment [4] the target is unchanged. As to the kind of experiment: FACS on HUVEC (endogenous human α5β1), GeoMean against mAb concentration, fitted; experiment 031307. As to the method: The 22B5/DLE, 24C7/DLE, 1 D9/DLE, and 2D2/DLE antibodies were tested for their binding affinity to cell surface integrin α5 using a FACS assay, employing endogenous human integrin α5β1 expressing cells (HUVEC). Briefly, the cells were detached using trypsin-EDTA and washed with cold PBS. After being aliquoted into 96-well plates, the cells were blocked by serum and incubated with different concentrations of specific mAb for 1 hour at 4° C. Subsequently, the cells were washed and incubated with an anti-human κ secondary antibody conjugated with the R-PE fluorophore and analyzed using a FACSCalibur flow cytometer. 10,000 events were collected for each sample without applying any gating. For KD determination, the Geometric Mean of each sample histogram was calculated and plotted as a function of the mAb concentration. KD was calculated after fitting to a two-state equilibrium model.

The source of these data is patent publication US20100330078A1 (Pfizer, published 2010).

Numbering of substitutions follows the chain as printed.

T1 sequence (P08648 42-1049, chain 1 of 2): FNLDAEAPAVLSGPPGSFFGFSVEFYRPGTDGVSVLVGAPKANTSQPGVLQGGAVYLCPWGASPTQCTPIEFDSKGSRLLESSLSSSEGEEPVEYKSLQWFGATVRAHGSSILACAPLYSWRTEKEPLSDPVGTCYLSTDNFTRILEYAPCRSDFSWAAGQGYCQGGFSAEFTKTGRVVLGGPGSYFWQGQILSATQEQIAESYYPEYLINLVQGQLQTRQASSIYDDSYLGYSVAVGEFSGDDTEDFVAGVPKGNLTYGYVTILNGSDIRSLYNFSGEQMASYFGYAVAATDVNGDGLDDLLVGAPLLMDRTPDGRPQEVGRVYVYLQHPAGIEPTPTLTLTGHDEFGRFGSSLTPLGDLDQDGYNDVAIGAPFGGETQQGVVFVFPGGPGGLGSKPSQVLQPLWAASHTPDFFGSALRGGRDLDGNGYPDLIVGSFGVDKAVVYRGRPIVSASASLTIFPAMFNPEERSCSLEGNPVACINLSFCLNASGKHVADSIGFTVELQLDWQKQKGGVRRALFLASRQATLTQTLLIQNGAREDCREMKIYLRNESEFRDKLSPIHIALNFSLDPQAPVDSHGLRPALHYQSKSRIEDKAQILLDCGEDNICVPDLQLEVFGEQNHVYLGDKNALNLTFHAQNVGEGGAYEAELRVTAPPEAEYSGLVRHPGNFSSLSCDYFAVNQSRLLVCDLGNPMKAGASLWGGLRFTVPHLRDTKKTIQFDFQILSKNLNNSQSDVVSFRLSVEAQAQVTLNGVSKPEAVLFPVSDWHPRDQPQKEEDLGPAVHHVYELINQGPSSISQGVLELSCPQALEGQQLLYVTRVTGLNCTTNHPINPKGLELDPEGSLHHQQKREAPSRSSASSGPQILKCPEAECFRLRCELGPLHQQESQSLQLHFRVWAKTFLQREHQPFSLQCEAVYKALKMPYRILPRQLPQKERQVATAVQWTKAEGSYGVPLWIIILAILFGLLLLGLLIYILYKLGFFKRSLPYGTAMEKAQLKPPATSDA
T1 sequence (P05556 21-798, chain 2 of 2): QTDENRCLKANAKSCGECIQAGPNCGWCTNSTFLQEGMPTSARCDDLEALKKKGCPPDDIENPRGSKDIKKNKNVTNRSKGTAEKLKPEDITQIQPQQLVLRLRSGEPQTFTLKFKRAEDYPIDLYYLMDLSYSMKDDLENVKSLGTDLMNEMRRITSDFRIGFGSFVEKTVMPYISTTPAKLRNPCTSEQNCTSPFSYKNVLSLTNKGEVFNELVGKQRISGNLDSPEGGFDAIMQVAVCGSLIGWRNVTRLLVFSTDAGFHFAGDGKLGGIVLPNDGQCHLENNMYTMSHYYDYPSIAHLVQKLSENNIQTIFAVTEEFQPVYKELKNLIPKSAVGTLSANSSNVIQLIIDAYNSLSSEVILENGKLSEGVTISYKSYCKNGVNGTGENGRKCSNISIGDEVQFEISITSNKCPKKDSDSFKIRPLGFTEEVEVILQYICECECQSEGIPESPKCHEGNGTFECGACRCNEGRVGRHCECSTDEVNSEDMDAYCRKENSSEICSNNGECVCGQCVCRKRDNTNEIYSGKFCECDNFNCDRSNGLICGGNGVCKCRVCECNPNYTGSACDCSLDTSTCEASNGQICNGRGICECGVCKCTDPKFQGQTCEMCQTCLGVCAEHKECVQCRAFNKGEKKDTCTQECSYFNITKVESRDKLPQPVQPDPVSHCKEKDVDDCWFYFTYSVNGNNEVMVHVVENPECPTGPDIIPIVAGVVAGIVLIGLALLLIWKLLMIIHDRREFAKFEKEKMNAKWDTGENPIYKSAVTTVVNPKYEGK

B1: 22B5 wild type IgG1 (antibody, V domains shown)
VH: QLQLQESGPGLVKPSETLSLTCTVSGGSISSSSYWGWIRQPPGKGLEWIGSIYYSGRNYNNPSLKSRVTISVDTSKNQFSLKLSSVTAADTAVYYCARHYYGSGSSYYYYDLDVWGQGTTVTVSS
VL: EIVLTQSPATLSLSPGERATLSCRASQSVSSYLAWYQQKPGQAPRLLIYDASNRATGIPARFSGSGSGTDFTLTISSLEPEDFAVYYCQQRSNWPLTFGGGTKVEIK
notes: Human IgG1 with wild type Fc (no DLE mutations); also called 22B5 wt IgG1; wt 22B5 IgG1
Broadly, the Kd is the equilibrium constant for the complex coming apart. B1 showed a Kd in experiment [1] of 1.95 nM. For the same molecule, the “ADCC EC50, human PBMCs” value in experiment [2] was found to be 0.23 nM. Further, the “IC50, inhibition of HUVEC adhesion to fibronectin (fluorescence 485/535 nM)” value (shortened to “IC50, inhibition of HUVEC adhesion”) in experiment [3] was found to be 0.43 nM.

B2: 1D9/DLE (antibody, V domains shown)
VH: QVQLVESGGGVVQPGRSLRLSCAASGFPFSTYAMHWVRQAPGKGLEWVAVISYDGSNKYYADSVKGRFTISRDNSKNTLYLQMNSLRAEDTAVYYCARESPPIYYYYGMDVWGQGTTVTVSS
VL: B1 VL with L96R, G100Q
notes: also called 1D9 IgG1 DLE; 1D9 G1 DLE
As for B2, the values for the Kd in experiment [1] and in experiment [4] were 1.68 nM and 1.49 nM, respectively.

B3: 22B5 IgG4 (antibody, V domains shown)
VH: B1 VH
VL: B1 VL
Take B3: the “IC50, inhibition of HUVEC adhesion” value in experiment [3] was 0.57 nM.

B4: 22B5 IgG2 (antibody, V domains shown)
VH: B1 VH
VL: B1 VL
Take B4: the “IC50, inhibition of HUVEC adhesion” value in experiment [3] is 0.37 nM.

B5: 1D9 (antibody, IgG1, V domains shown)
VH: B2 VH
VL: B1 VL with L96R, G100Q
notes: also called 1D9 G1; I D9
In experiment [1], B5 yielded a Kd of 1.69 nM.

B6: 2D2/DLE (antibody, IgG1, V domains shown)
VH: QVQLVESGGGVVQPGRSLRLSCAASGFTFSSYAMHWVRQAPGKGLEWVAVISFDGSTKYYADSVKGRFTISRDNSKNTLDLQMNSLRAEDTALYYCAREYWGTYYYGTDVWGQGTTVIVSS
VL: B1 VL with S30N, L96R, G100Q
notes: Constant regions: see the note of 1D9/DLE; also called 2D2 IgG1 DLE
Regarding B6, the Kd in experiment [1] was determined as 8.78 nM; in experiment [4], 7.32 nM.
